Data on two molecules can be found in article PMC6197280, “A distinct isoform of ZNF207 controls self-renewal and pluripotency of human embryonic stem cells”.

This data set concerns the target ZNF207 isoform C (human, UniProt O43670-4 1-494). Description: EMSA; 100 ng protein, 3 ng probe, 1 ug poly(dI-dC), 10 mM MgCl2; 10 mM HEPES pH 7.5, 10 mM KCl, 10 mM MgCl2, 1 mM DTT, 1 mM EDTA, 10% glycerol, 1 ug poly(dI-dC) in 10 ul, 10 min at room temperature; 5% native PAGE in 0.5x TBE. The settings on record: protein: commercial; label: 5' biotin on sense strand; duplex of annealed sense and reverse strands.

Chain of ZNF207 isoform C (O43670 other isoform, or with tags, fused parts or gaps): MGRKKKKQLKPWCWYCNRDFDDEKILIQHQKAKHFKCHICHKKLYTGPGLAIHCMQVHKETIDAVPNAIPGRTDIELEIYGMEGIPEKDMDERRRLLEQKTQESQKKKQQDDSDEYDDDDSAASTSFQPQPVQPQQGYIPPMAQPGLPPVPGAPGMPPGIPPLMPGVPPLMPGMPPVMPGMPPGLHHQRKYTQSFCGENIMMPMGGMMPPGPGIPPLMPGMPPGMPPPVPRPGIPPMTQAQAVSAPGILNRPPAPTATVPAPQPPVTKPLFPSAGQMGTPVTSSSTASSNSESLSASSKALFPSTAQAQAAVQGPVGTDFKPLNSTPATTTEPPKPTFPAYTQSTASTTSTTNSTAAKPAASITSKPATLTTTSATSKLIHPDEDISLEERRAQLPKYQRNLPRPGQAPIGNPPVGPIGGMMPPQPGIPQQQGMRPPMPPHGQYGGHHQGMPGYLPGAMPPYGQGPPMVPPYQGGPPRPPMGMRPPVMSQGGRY

B1: ZNF207 motif MUT (dsDNA)
DNA 1: TTTTAAACACGCGTGTGTTAG
DNA 2: CTAACACACGCGTGTTTAAAA
Consider B1, for which the binding result is listed as “no binding”.

B2: ZNF207 motif WT (dsDNA)
DNA 1: TTTGAAACACTCTTTTTGTAG
DNA 2: CTACAAAAAGAGTGTTTCAAA
For the molecule B2, the binding result is “binds”.
